*1 amine or outer side, *2 acyl side, *3 side chain or, on linkers, in order; H or OH if unused. Primed or numbered codes have the meaning given here. Where no end group is shown, it is not given here. [ ]: non-standard residue; d: D form. The star is where a group is joined. X1 = 4‑(2′-methylphenyl)‑3‑pyridylalanine, Cc1ccccc1-c1ccncc1C[C@H](N[*:1])C(=O)[*:2]; Bip(2′-Et-4′-OH-5′-I) = CCc1cc(O[*:3])c(I)cc1-c1ccc(C[C@H](N[*:1])C(=O)[*:2])cc1; Phe(4-(2-Et-4-HO-Ph)) = CCc1cc(O)ccc1-c1ccc(C[C@H](N)C(=O)O)cc1; IMeOp = 3-(1H-imidazol-4-yl)-2-methoxypropanoyl; αMePhe(2-F) = C[C@](N)(Cc1ccccc1F)C(=O)O; αMeP = C[C@@]1(C(=O)O)CCCN1; Moc = COC(=O)*
T1: Mouse GLP-1 Receptor (Mus musculus, UniProt O35659)
T1 construct: expressed in transfected cells; host or cells: CHO cells
T1 sequence (O35659 22-463): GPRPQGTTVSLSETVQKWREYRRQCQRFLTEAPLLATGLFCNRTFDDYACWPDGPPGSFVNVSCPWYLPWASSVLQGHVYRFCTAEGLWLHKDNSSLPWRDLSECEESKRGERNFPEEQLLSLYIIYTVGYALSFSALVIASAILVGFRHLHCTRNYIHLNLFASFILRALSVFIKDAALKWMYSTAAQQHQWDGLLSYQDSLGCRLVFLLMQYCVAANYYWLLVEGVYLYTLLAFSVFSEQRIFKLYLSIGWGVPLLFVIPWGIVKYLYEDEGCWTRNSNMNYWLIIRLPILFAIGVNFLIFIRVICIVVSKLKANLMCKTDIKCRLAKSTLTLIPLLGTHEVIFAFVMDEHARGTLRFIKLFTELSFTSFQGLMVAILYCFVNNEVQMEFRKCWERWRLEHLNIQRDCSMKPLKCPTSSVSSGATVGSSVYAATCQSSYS

T2: Mouse GLP-1 Receptor (mouse, UniProt O35659 22-463)
T2 sequence (looked up): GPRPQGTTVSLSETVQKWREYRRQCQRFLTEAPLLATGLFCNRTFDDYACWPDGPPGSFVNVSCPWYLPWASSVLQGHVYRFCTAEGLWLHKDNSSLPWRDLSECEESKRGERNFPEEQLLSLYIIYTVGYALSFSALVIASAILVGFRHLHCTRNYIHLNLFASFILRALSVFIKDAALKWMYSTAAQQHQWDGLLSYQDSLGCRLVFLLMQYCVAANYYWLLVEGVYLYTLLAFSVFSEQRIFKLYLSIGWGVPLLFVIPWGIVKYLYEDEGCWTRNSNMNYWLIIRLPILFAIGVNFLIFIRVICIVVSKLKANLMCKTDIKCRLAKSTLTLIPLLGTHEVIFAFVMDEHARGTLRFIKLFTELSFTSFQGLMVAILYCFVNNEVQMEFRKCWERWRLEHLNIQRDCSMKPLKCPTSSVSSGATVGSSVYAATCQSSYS


Tests used:
Mouse GLP-1 Receptor [1] = target: T1, Mouse GLP-1 Receptor; experiment: Stimulation of cAMP synthesis in CHO cells expressing mouse GLP-1 receptor; assay type: cell-based; conditions: for Emax: CHO, percent of maximal GLP-1 stimulated activity
Description: (§1) CHO-GLP-1R-19 cells (20,000 in 100 μl of media) were plated into each well of a 96-well tissue culture microtiter plate and incubated overnight in a 5% CO2 atmosphere at 37° C. On the day of the assay, cells were washed once with 100 μl of phosphate-buffered saline (PBS). A Biomek 2000 was used to serially dilute all peptides prior to beginning the assay. Serial dilutions were carried out in 100% DMSO.
(§2) 50 μl of each cAMP standard was added by hand and 70 μl of mix reagent (Amersham cAMP SPA kit) was added using the multidrop. […] This standard curve was used to convert CPM to pmol of cAMP.
(§3) Cell plates and peptide plates were loaded onto the Platemate. The media was aspirated from the wells and discarded. 100 uL per well of the peptide/buffer mixture were then added from the peptide plates to initiate the assay. After 30 min. of incubation the peptide/buffer was removed and 50 uL of the lysis reagent 1 solution was added per well. The plate was kept for one hour at RT or overnight if refrigerated and sealed.
(§4) Dose dependence for Compounds was determined at half-log concentrations in duplicate. […] A standard curve was determined using known amounts of cyclic AMP. […] The data were analyzed by nonlinear regression curve fitting (4 parameter sigmoidal dose-response curve) to determine the EC50 of the compounds.

Human GLP-1 Receptor = target: T3, Human GLP-1 Receptor (Homo sapiens, UniProt P43220); experiment: Cyclic AMP determination in CHO cells expressing human GLP-1 receptor; assay type: cell-based; conditions: for Emax: CHO, percent of maximal GLP-1 stimulated activity; for Emax / Mean Hill: human GLP-1 receptor
T3 construct: Full-length human glucagon-like peptide 1 receptor was stably expressed in CHO-K1 cells; expressed in transfected cells; host or cells: CHO-K1 (clone CHO-GLP1R-19)
Description: as §1, §2, §3, §4

Mouse GLP-1 Receptor [2] = target: T2, Mouse GLP-1 Receptor; experiment: cell-based or functional assay
[3] = target: Full-length human glucagon-like peptide 1 receptor (human, UniProt P43220 24-463); experiment: cell-based or functional assay

T3 sequence (P43220 24-463): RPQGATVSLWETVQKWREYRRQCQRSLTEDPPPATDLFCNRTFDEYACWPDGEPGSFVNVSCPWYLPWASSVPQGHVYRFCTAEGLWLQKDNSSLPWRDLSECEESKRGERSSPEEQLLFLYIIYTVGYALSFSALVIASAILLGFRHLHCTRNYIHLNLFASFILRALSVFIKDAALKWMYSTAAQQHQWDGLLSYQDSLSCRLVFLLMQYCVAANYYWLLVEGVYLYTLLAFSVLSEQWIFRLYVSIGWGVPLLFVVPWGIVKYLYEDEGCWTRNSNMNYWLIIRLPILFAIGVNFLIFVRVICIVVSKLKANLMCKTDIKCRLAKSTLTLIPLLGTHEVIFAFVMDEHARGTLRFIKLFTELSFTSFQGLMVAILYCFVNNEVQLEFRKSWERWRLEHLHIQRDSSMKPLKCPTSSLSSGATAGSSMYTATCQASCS

Row | Mean Hill (Mouse GLP-1 Receptor [1]) | Emax (Mouse GLP-1 Receptor [1]) [%] | Emax (Human GLP-1 Receptor) [%] | Mean Hill (Human GLP-1 Receptor) | EC50 (Human GLP-1 Receptor) [pM] | Mean EC50 (nM), stimulation of cAMP synthesis in CHO cells (Mouse GLP-1 Receptor [2]) [nM] | Mean Emax (%), stimulation of cAMP synthesis in CHO cells (Mouse GLP-1 Receptor [2]) [%] | Mean EC50 (nM), stimulation of cAMP synthesis in CHO cells [3] [nM] | Mean Emax (%), stimulation of cAMP synthesis in CHO cells [3] [%] | Molecule
1 | 1.4 | 99.7 | 95.6 | 2.6 |  |  |  |  |  | CCc1cc(O)ccc1-c1ccc(C[C@H](NC(=O)[C@H](CC(=O)O)NC(=O)[C@H](CO)NC(=O)[C@@H](NC(=O)[C@](C)(Cc2ccccc2F)NC(=O)[C@@H](NC(=O)CNC(=O)[C@H](CCC(=O)O)NC(=O)[C@]2(C)CCCN2C(=O)C(Cc2c[nH]cn2)OC)[C@@H](C)O)[C@@H](C)O)C(=O)N[C@@H](Cc2ccc(-c3ccccc3C)nc2)C(N)=O)cc1 (single isomer, unassigned) [SEQ ID NO: 173]
2 | 2.1 |  |  | 2.7 |  |  |  |  |  | CCc1cc(O)ccc1-c1ccc(C[C@H](NC(=O)[C@H](CC(=O)O)NC(=O)[C@H](CO)NC(=O)[C@@H](NC(=O)[C@](C)(Cc2ccccc2F)NC(=O)[C@@H](NC(=O)CNC(=O)[C@H](CCC(=O)O)NC(=O)[C@]2(C)CCCN2C(=O)C(Cc2c[nH]cn2)OC)[C@@H](C)O)[C@@H](C)O)C(=O)N[C@@H](Cc2ccc(-c3ccccc3C)nc2)C(N)=O)cc1 (single isomer, unassigned) [SEQ ID NO: 174]
3 | 2.7 | 100 | 105 | 2.8 |  |  |  |  |  | CCc1cc(O)ccc1-c1ccc(C[C@H](NC(=O)[C@H](CC(=O)O)NC(=O)[C@H](Cc2c[nH]cn2)NC(=O)[C@@H](NC(=O)[C@](C)(Cc2ccccc2F)NC(=O)[C@@H](NC(=O)CNC(=O)[C@H](CCC(=O)O)NC(=O)[C@]2(C)CCCN2C(=O)C(Cc2c[nH]cn2)OC)[C@@H](C)O)[C@@H](C)O)C(=O)N[C@@H](Cc2ccc(-c3ccccc3C)nc2)C(N)=O)cc1 (single isomer, unassigned) [SEQ ID NO: 175]
4 | 1.9 |  |  | 3.1 |  |  |  |  |  | CCc1cc(O)ccc1-c1ccc(C[C@H](NC(=O)[C@H](CC(=O)O)NC(=O)[C@H](Cc2c[nH]cn2)NC(=O)[C@@H](NC(=O)[C@](C)(Cc2ccccc2F)NC(=O)[C@@H](NC(=O)CNC(=O)[C@H](CCC(=O)O)NC(=O)[C@]2(C)CCCN2C(=O)C(Cc2c[nH]cn2)OC)[C@@H](C)O)[C@@H](C)O)C(=O)N[C@@H](Cc2ccc(-c3ccccc3C)nc2)C(N)=O)cc1 (single isomer, unassigned) [SEQ ID NO: 176]
5 | 2.7 | 103 | 97.2 | 1.5 | 10 |  |  |  |  | CCc1cc(O)c(I)cc1-c1ccc(C[C@H](NC(=O)[C@H](CC(=O)O)NC(=O)[C@H](CO)NC(=O)[C@@H](NC(=O)C(C)(Cc2ccccc2F)NC(=O)[C@@H](NC(=O)CNC(=O)[C@H](CCC(=O)O)NC(=O)C2(C)CCCN2C(=O)[C@H](Cc2c[nH]cn2)NC(=O)OC)[C@@H](C)O)[C@@H](C)O)C(=O)N[C@@H](Cc2ccc(-c3ccccc3C)nc2)C(N)=O)cc1 (some centres unmarked) [SEQ ID NO: 164]
6 |  |  |  |  |  | 0.084 | 100 | 0.03 | 105 | [IMeOp][αMeP]EGT[αMePhe(2-F)]THD[Phe(4-(2-Et-4-HO-Ph))][X1]-NH2 (also: IMeOp configuration (R or S) not determined) [Compound of SEQ ID NO: 175 (or 176)*]
7 |  |  |  |  |  | 0.055 | 103 | 0.01 | 97.2 | Moc-H[αMeP]EGT[αMePhe(2-F)]TSD[Bip(2′-Et-4′-OH-5′-I)][X1]-NH2 [Compound of SEQ ID NO: 164]
8 |  |  |  |  |  | 0.114 | 99.7 | 0.018 | 95.6 | [IMeOp][αMeP]EGT[αMePhe(2-F)]TSD[Phe(4-(2-Et-4-HO-Ph))][X1]-NH2 (also: IMeOp configuration (R or S) not determined) [Compound of SEQ ID NO: 173 (or 174)*]
9 |  |  |  |  |  | 0.126 | 105 | 0.03 | 95.8 | [IMeOp][αMeP]EGT[αMePhe(2-F)]THD[Phe(4-(2-Et-4-HO-Ph))][X1]-NH2 (also: IMeOp configuration (S or R) not determined) [Compound of SEQ ID NO: 176 (or 175)*]
10 |  |  |  |  |  | 0.191 | 101 | 0.018 | 101 | Moc-H[αMeP]EGT[αMePhe(2-F)]TSD[Phe(4-(2-Et-4-HO-Ph))][X1]-NH2 [Compound of SEQ ID NO: 158]
11 |  |  |  |  |  | 0.273 | 105 | 0.024 | 104 | [IMeOp][αMeP]EGT[αMePhe(2-F)]TSD[Phe(4-(2-Et-4-HO-Ph))][X1]-NH2 (also: IMeOp configuration (S or R) not determined) [Compound of SEQ ID NO: 174 (or 173)*]

Reference: US7960349B2 (Bristol-Myers Squibb Company, priority 2006, dated 2011)
